Results on two molecules are retold here after publication PMC11076491, “Allosteric regulation by c-di-AMP modulates a complete N-acetylglucosamine signaling cascade in Saccharopolyspora erythraea” (Nature Communications, 2024).

For data set [1], the system named is DasR (Saccharopolyspora erythraea). Description: BLI. As to conditions: EMSA: 10 mM Tris-HCl pH 8.0, 25 mM MgCl2, 50 mM NaCl, 1 mM DTT, 1 mM EDTA, 0.01% NP-40, 50 ug/mL poly(dIdC), 10% glycerol, 18 C, 30 min, BLI: 10 mM HEPES pH ….
Data set [2] addresses T1, ScoDasR (DasR^Sco) (Streptomyces coelicolor, UniProt Q9K492).
T1 construct: full-length, His-tagged, expressed in E. coli BL21(DE3), Ni-NTA purified; GntR family, predominantly dimer
T1 sequence (Q9K492 1-254): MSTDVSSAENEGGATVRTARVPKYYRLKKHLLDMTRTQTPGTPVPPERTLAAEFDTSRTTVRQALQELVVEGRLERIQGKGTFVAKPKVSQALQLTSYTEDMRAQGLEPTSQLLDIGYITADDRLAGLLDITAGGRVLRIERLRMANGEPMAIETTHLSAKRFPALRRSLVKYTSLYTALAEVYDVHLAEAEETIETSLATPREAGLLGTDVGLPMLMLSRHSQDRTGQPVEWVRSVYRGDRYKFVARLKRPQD
The data set can be described thus: isothermal titration calorimetry. In kind it is binding.

In data set [3] the target is T2, DasR (His-DasR) of S. erythraea (Saccharopolyspora erythraea, UniProt A4F723).
T2 construct: gene SACE_0500; full-length, His-tagged, expressed in E. coli BL21(DE3), Ni-NTA purified; predominantly dimer (c-di-AMP promotes dimerization)
T2 sequence (A4F723 1-251): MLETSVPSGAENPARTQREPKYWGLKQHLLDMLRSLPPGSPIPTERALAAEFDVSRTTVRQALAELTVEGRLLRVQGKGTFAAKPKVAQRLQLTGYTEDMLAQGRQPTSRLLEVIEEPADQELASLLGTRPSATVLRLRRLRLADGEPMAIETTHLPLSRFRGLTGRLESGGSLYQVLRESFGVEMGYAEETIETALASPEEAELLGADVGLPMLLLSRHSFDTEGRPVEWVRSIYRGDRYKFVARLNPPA
Description: isothermal titration calorimetry. Format: binding.

On to nagA promoter, for which the Kd in data set [1] (100 uM c-di-AMP) amounted to 0.44 µM; in data set [1] (no c-di-AMP) it was 19 µM.

Turning to `Nc1ncnc2c1ncn2[C@@H]1O[C@@H]2COP(=O)(O)O[C@H]3[C@@H](O)[C@H](n4cnc5c(N)ncnc54)O[C@@H]3COP(=O)(O)O[C@H]2[C@H]1O` [c-di-AMP], the figures for the Kd in data set [2] and in data set [3] were 23 µM and 26.8 µM, respectively.
